From patent US20180072803A1 (MINOMIC INTERNATIONAL, published 2018)
Values belong to the binder of their own block, whether it stands above or below them.

Tests used:
[1] = molecular target: T1, recombinant human GPC-1 produced from NS0 cells (human, UniProt P35052 24-530); assay: Western blot, three-antibody detection
T1 construct: also called GPC-1 NS0; recombinant NS0-produced GPC-1
T1 sequence (looked up): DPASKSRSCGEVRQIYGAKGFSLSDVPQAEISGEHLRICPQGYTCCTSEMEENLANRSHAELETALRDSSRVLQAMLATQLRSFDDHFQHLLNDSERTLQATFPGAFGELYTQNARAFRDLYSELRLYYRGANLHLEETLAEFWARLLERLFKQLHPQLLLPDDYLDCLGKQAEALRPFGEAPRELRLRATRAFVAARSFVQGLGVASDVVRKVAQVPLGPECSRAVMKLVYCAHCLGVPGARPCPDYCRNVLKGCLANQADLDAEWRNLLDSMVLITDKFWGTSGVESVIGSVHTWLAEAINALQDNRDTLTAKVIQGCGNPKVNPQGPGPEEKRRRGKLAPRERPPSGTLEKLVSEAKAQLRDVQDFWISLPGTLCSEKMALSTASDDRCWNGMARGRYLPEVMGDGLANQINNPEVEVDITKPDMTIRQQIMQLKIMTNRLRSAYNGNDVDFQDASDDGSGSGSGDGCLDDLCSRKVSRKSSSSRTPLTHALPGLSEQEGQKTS
Description: As a control, murine MIL-38 was detected by goat anti-mouse secondary antibody followed by a sheep-anti-goat HRP antibody. […] The complex was detected using a sheep-anti-goat HRP antibody. […] The complex was detected using a sheep-anti-mouse HRP antibody.
A control western blot using a three antibody detection method was also performed with murine MIL-38. (FIG. 9C).

[2] = molecular target: T2, MIL-38 antigen (GPC-1) as present in DU-145 and other cell lines (UniProt P35052 24-530); assay: immunofluorescence assay on DU-145 cells (FIG. 8F)
T2 construct: whole, on cells; In IFA it stood on acetone-fixed cells; in Western blots it stood in membrane protein (MPEK) extracts of the cells; also called GPC-1 antigen
T2 sequence (looked up): T1 sequence (looked up)
Description: IFA: Cells were grown on coverslips until 75% confluent and placed in 6 well plates. The cells were washed with PBS followed by fixing with acetone. Cells were washed again with PBS followed by incubation with TBS then blocked with PBS containing 5% skim milk. […] Both antibodies were prepared in PBS containing 1% skim milk followed. Washing with PBS was performed between the primary and secondary antibody incubations. After secondary incubation, cells were washed with PBS containing DAPI and visualised for green fluorescence (MIL-38 positive).
A slide with no primary antibody was used as a negative control.

[3] = molecular target: T2, MIL-38 antigen (GPC-1) as present in …; assay: Western blot on DU-145 and C3 extracts (FIG. 2B)
[4] = molecular target: T1, recombinant human GPC-1 produced from …; assay: sandwich ELISA, antibody coated as capture, biotinylated AM-4 as detection (FIG. 6A)
Description: Plates were blocked with PBS-Tween (0.1.%) containing 5% skim milk at 37° C. and washed. Antigen (recombinant human GPC-1 produced from NS0 cells) diluted in Buffer II (20 mM HEPES pH 7.5, 0.5 mM EDTA, 0.5% Triton X-100) with the addition of 150 mM NaCl and incubated overnight at 37° C. […] Absorbance was read 450 nm.

binding result [1]: binds | binding result [2]: binds
B1: Chimeric MIL-38 antibody (Mouse VH-Human CH1-CH3 / Mouse VK-Human CK) (antibody, human IgG1, kappa)
heavy: not shown
light: DIQMTQSPASLSASVGETVTITCRASGNVHNYLAWYQQKQGKSPQLLVYTAKTLADGVPSRFSGSGSGTQYSLKINSLQPEDFGTYYCQHFWSNPWTFGGGTKLEIKRTVAAPSVFIFPPSDEQLKSGTASVVCLLNNFYPREAKVQWKVDNALQSGNSQESVTEQDSKDSTYSLSSTLTLSKADYEKHKVYACEVTHQGLSSPVTKSFNRGEC
notes: Expressed transiently in CHO-3E7 cells and purified on Protein A; also called MIL-38 chimeric antibody

binding result [3]: binds | binding result [4]: binds
B2: AM-4 MIL-38 antibody (AusMAb 4) (antibody, mouse IgG1, kappa)
heavy: QIQLVQSGPELKKPGETVKISCKASGYAFTDYSMNWVKQAPGKGLRWMGWINTETGEPTYTDDFKGRFAFSLETSASTAFLQINNLRNEDTATYFCARHYDYGGFPYWGQGTLVTVSAAKTTPPSVYPLAPGSAAQTNSMVTLGCLVKGYFPEPVTVTWNSGSLSSGVHTFPAVLQSDLYTLSSSVTVPSSTWPSETVTCNVAHPASSTKVDKKIVPRDCGCKPCICTVPEVSSVFIFPPKPKDVLTITLTPKVTCVVVDISKDDPEVQFSWFVDDVEVHTAQTQPREEQFNSTFRSVSELPIMHQDWLNGKEFKCRVNSAAFPAPIEKTISKTKGRPKAPQVYTIPPPKEQMAKDKVSLTCMITDFFPEDITVEWQWNGQPAENYKNTQPIMDTDGSYFVYSKLNVQKSNWEAGNTFTCSVLHEGLHNHHTEKSLSHSPGK
light: DIQMTQSPASLSASVGETVTITCRASGNVHNYLAWYQQKQGKSPQLLVYTAKTLADGVPSRFSGSGSGTQYSLKINSLQPEDFGTYYCQHFWSNPWTFGGGTKLEIKRADAAPTVSIFPPSSEQLTSGGASVVCFLNNFYPKDINVKWKIDGSERQNGVLNSWTDQDSKDSTYSMSSTLTLTKDEYERHNSYTCEATHKTSTSPIVKSFNRNEC
notes: Monoclonal mouse IgG1 kappa; Biotinylated AM-4 was also the detection antibody in the sandwich ELISA; also called monoclonal AM-4 MIL-38
